Data as given in patent US20240000957A1 (published 2024).
*1 amine or outer side, *2 acyl side, *3 side chain or, on linkers, in order; H or OH if unused. Bridges are numbered along the chain shown (N, C = ends). Where no end group is shown, it is not given here. [ ]: non-standard residue; d: D form. TATA = O=C(CC[*:1])N1CN(C(=O)CC[*:2])CN(C(=O)CC[*:3])C1; 2Nal = N[C@@H](Cc1ccc2ccccc2c1)C(=O)O; βAla = NCCC(=O)O; Sar = CNCC(=O)O

B1: BCY6026 (peptide)
peptide: ACPLVNPLCLHPGWSCRGQ
modifications: linker 2-9-16 via TATA
notes: also called Compound 87
B2: Compound 89 (peptide)
peptide: [βAla][Sar][Sar][Sar][Sar][Sar][Sar][Sar][Sar][Sar][Sar]ACPLVNPLCLHPGWSCRGQ
modifications: linker 13-20-27 via TATA; not fully specified (C-terminus); printed as (β-Ala)-Sar10-ACPLVNPLCLHPGWSCRGQ
B3: Compound 90 (peptide)
peptide: ACPLVNPLCLHPGWSCXGQ
modifications: not fully specified; N-terminal (β-Ala)-Sar10; HArg; TATA scaffold on the 3 Cys
B4: BCY6042 (peptide)
peptide: CPLVNPLCLHPGWSCRGQ
modifications: N-terminal Ac; C-terminal -Sar6-(D-K); TATA scaffold on the 3 Cys
notes: also called Compound 91
B5: Compound 92 (peptide)
peptide: CPLVNPLCLHPGWSCXGQ
modifications: not fully specified; N-terminal Ac; HArg; C-terminal -Sar6-(D-K); TATA scaffold on the 3 Cys
B6: Compound 58 (peptide)
peptide: ACPLVNPLCLLDGWTCA
modifications: linker 2-9-16 via TATA; not fully specified (C-terminus)
B7: Compound 59 (peptide)
peptide: ACPLVNPLCLMPGWGCA
modifications: linker 2-9-16 via TATA; not fully specified (C-terminus)
B8: Compound 60 (peptide)
peptide: ACPLVNPLCMIGNWTCA
modifications: linker 2-9-16 via TATA; not fully specified (C-terminus)
B9: Compound 61 (peptide)
peptide: ACPLVNPLCLMTGWSCA
modifications: linker 2-9-16 via TATA; not fully specified (C-terminus)
B10: Compound 62 (peptide)
peptide: ACPLVNPLCMMGGWKCA
modifications: linker 2-9-16 via TATA; not fully specified (C-terminus)
B11: Compound 63 (peptide)
peptide: ACPLVNPLCLYGSWKCA
modifications: linker 2-9-16 via TATA; not fully specified (C-terminus)
B12: Compound 65 (peptide)
peptide: ARDCPLVNPLCLHPGWTCA
modifications: linker 4-11-18 via TATA; not fully specified (C-terminus)
B13: BCY6014 (peptide)
peptide: AXDCPLVNPLCLHPGWTC
modifications: N-terminal (β-Ala)-Sar10; HArg; TATA scaffold on the 3 Cys
notes: also called Compound 67
B14: Compound 68 (peptide)
peptide: Ac-ARDCPLVNPLCLHPGWTCA
modifications: linker 4-11-18 via TATA; not fully specified (C-terminus); printed as Ac-ARDCPLVNPLCLHPGWTCA-Sar6-(D-K)
B15: Compound 69 (peptide)
peptide: AXDCPLVNPLCLHPGWTCA
modifications: not fully specified; N-terminal Ac; HArg; C-terminal -Sar6-(D-K); TATA scaffold on the 3 Cys
B16: Compound 70 (peptide)
peptide: RPACPLVNPLCLHPGWTCA
modifications: linker 4-11-18 via TATA; not fully specified (C-terminus)
B17: Compound 71 (peptide)
peptide: RPPCPLVNPLCLHPGWTCA
modifications: linker 4-11-18 via TATA; not fully specified (C-terminus)
B18: Compound 74 (peptide)
peptide: Ac-CPLVNPLCLHPGWTCLHG
modifications: linker 1-8-15 via TATA; not fully specified (C-terminus); printed as Ac-CPLVNPLCLHPGWTCLHG
B19: Compound 75 (peptide)
peptide: ACPLVNPLCLHPGWTCLHG
modifications: N-terminal (β-Ala)-Sar10; TATA scaffold on the 3 Cys
B20: Compound 76 (peptide)
peptide: ACPLVNPLCLHPGWTCLXG
modifications: not fully specified; N-terminal (β-Ala)-Sar10; D-His; TATA scaffold on the 3 Cys
B21: BCY6019 (peptide)
peptide: CPLVNPLCLHPGWTCLHG
modifications: N-terminal Ac; C-terminal -Sar6-(D-K); TATA scaffold on the 3 Cys
notes: also called Compound 77
B22: Compound 78 (peptide)
peptide: CPLVNPLCLHPGWTCLXG
modifications: not fully specified; N-terminal Ac; D-His; C-terminal -Sar6-(D-K); TATA scaffold on the 3 Cys
B23: Compound 79 (peptide)
peptide: ACPLVNPLCLHPG[2Nal]TCLHG
modifications: linker 2-9-16 via TATA; not fully specified (C-terminus); printed as ACPLVNPLCLHPG(2Nal)TCLHG
B24: BCY6037 (peptide)
peptide: Ac-CPLVNPLCLHPGWTCLHG
modifications: linker 1-8-15 via TATA; not fully specified (C-terminus); also: ValCit-MMAE conjugated, site not given here
notes: Bicycle drug conjugate (BDC)
B25: BCY6034 (peptide)
peptide: AXDCPLVNPLCLHPGWTC
modifications: not fully specified; as BCY6014 (N-terminal (β-Ala)-Sar10; HArg; TATA scaffold on the 3 Cys) + TrpCit-MMAE
notes: Bicycle drug conjugate (BDC)
B26: BCY6038 (peptide)
peptide: Ac-CPLVNPLCLHPGWTCLHG
modifications: linker 1-8-15 via TATA; not fully specified (C-terminus); also: TrpCit-MMAE conjugated, site not given here
notes: Bicycle drug conjugate (BDC)
B27: BCY6035 (peptide)
peptide: Ac-CPLVNPLCLHPGWTCLHG
modifications: linker 1-8-15 via TATA; not fully specified (C-terminus); also: DM1-SS- conjugated, site not given here
notes: Bicycle drug conjugate (BDC)
B28: BCY6063 (peptide)
peptide: AXDCPLVNPLCLHPGWTC
modifications: not fully specified; as BCY6014 (N-terminal (β-Ala)-Sar10; HArg; TATA scaffold on the 3 Cys) + Non-cleavable (MMAE)
notes: Bicycle drug conjugate (BDC)
B29: BCY6036 (peptide)
peptide: Ac-CPLVNPLCLHPGWTCLHG
modifications: linker 1-8-15 via TATA; not fully specified (C-terminus); also: DM1-SS-(Me)- conjugated, site not given here
notes: Bicycle drug conjugate (BDC)
B30: BCY6055 (peptide)
peptide: AXDCPLVNPLCLHPGWTC
modifications: not fully specified; as BCY6014 (N-terminal (β-Ala)-Sar10; HArg; TATA scaffold on the 3 Cys) + DM1-SS-(Me2)-
notes: Bicycle drug conjugate (BDC)
B31: BCY6026 (peptide)
peptide: ACPLVNPLCLHPGWSCRGQ
modifications: linker 2-9-16 via TATA
notes: Bicyclic peptide on a TATA scaffold, no toxin; Made on Rink amide resin; also called Compound 87; Bicycle Compound Number 87
B32: BCY6031 (peptide)
peptide: AXDCPLVNPLCLHPGWTC
modifications: not fully specified; N-terminal (β-Ala)-Sar10 spacer precedes SEQ ID NO: 11; HArg (homoarginine) at residue 2 of SEQ ID NO: 11; three Cys cyclised on the TATA scaffold; DM1-SS- (DM1-SPDB) on the N-terminal amine
B33: BCY6032 (peptide)
peptide: AXDCPLVNPLCLHPGWTC
modifications: not fully specified; N-terminal (β-Ala)-Sar10 spacer precedes SEQ ID NO: 11; HArg (homoarginine) at residue 2 of SEQ ID NO: 11; three Cys cyclised on the TATA scaffold; DM1-SS-(Me)- (DM1-SPP) on the N-terminal amine
B34: BCY6034 (peptide)
peptide: AXDCPLVNPLCLHPGWTC
modifications: not fully specified; N-terminal (β-Ala)-Sar10 spacer precedes SEQ ID NO: 11; HArg (homoarginine) at residue 2 of SEQ ID NO: 11; three Cys cyclised on the TATA scaffold; TrpCit-MMAE (MMAE-PABC-Cit-Trp-glutarate) on the N-terminal amine

Biological target: T1, Human EphA2 (Ecto), C-terminal polyHis (Human, UniProt P29317 24-537)
T1 construct: extracellular domain; R&D systems 3035-A2 or in-house
T1 sequence (P29317 24-537): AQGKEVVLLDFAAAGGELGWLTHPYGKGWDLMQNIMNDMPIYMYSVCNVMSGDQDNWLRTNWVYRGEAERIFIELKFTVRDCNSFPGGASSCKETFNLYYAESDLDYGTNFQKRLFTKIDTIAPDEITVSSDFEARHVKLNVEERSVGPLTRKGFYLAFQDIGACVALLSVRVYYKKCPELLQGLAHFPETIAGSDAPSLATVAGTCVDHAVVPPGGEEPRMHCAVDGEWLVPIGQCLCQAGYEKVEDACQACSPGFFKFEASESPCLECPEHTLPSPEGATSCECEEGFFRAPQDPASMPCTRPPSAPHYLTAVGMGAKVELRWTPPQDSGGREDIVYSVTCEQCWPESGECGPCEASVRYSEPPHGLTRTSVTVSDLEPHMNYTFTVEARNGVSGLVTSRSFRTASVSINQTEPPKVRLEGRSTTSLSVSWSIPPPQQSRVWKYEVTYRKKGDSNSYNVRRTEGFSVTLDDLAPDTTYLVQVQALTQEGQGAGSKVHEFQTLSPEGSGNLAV
Assay: FP competition vs Reference Compound C

Binder | Ki [nM]
B1 | 2.57
B2 | 2.86
B3 | 5.41
B4 | 5.98
B5 | 10.6
B6 | 38.4
B7 | 114
B8 | 96.2
B9 | 242
B10 | 67.1
B11 | 59
B12 | 6.05
B13 | 8.51
B14 | 19.3
B15 | 17.5
B16 | 10.1
B17 | 11.1
B18 | 1.76
B19 | 2.48
B20 | 10
B21 | 5.41
B22 | 15.6
B23 | 162

Biological target: T2, Mouse EphA2 (Ecto) (Mouse, UniProt Q03145 26-538)
T2 construct: extracellular domain; Fluorescence polarisation assays; not shown: Fc fusion (R&D Systems 639-A2) or C-terminal polyHis (Sino Biological 50586-M08H)
T2 sequence (Q03145 26-538): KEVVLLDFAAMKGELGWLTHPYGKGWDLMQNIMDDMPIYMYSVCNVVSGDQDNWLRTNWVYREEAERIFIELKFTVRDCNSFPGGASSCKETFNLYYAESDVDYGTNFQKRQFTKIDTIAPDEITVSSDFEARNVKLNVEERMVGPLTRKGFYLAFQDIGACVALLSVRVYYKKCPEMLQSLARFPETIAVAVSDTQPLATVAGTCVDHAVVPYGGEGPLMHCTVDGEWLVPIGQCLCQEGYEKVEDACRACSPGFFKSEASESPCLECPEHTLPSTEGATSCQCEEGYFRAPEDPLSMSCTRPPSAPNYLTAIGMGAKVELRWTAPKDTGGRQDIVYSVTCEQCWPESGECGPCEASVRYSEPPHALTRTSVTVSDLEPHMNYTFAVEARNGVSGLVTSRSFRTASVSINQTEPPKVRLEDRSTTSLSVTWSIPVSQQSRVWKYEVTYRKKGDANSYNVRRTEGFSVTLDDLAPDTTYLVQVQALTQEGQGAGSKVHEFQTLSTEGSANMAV
Assay: FP competition vs Reference Compound C

Binder | Ki [nM]
B1 | 18.6
B2 | 29.6
B3 | 47
B4 | 49.9
B5 | 75.3
B12 | 39.1
B13 | 61.7
B14 | 166
B15 | 164
B20 | 75.2
B21 | 48.2
B22 | 115

Biological target: T1, Human EphA2 (Ecto), C-terminal polyHis
Assay: FP competition vs Reference Compound C (Study 2)

Binder | Ki [nM]
B24 | 7.3
B25 | 5.9
B26 | 2.8
B27 | 15.2
B28 | 7.8
B29 | 18.6
B30 | 15.8

Biological target: T2, Mouse EphA2 (Ecto)
Assay: FP competition vs Reference Compound C (Study 2)

Binder | Ki [nM]
B25 | 35.9
B28 | 66.8

Biological target: T3, Human EphA2 (Human, UniProt P29317 24-537, limits assumed, biotinylated, 0.95 mol biotin/monomer)
T3 construct: also called Eph receptor tyrosine kinase A2
T3 sequence (P29317 24-537 limits assumed): as the sequence (P29317 24-537) above
Assay: SPR, biotinylated EphA2 on streptavidin chip

Binder | t1/2 [min] | Kd [nM]
B31 | 11.3 | 
B32 | 2.3 | 1.99
B33 | 2.2 | 2.1
B34 | 3.2 | 1.64
